In paper PMC9817077, “Simple, Reliable Protocol for High-Yield Solubilization of Seedless Amyloid-β Monomer” (ACS Chemical Neuroscience, 2022):

Tests used:
[1] = Negative-stain electron microscopy (NS-EM); format: physicochemical; conditions: 4 μM
Experimental: To perform a further test for the presence of seeds, and determine whether the detected oligomers affected the self-assembly kinetics, Aβ(1-42) samples were purified by SEC, and their self-assembly kinetics were compared to those of unpurified samples. In summary, following the protocol used by Hellstrand et al.,[39] […] The fraction eluting from 13.6 to 14.6 min (at 1 mL/min) was collected on ice, diluted variably (60, 80, or 100%, i.e., undiluted) in the elution buffer to give a range of concentrations, supplemented with ThT from a concentrated stock, and used in ThT assays. This purification procedure was repeated several times with reproducible results, and a representative elugram is shown in Figure 6a. The UV absorbance and RI elugrams are very similar to those previously reported for in-house recombinant peptide purified according to the same protocol,[39] and the peak at ∼14 min has already been identified as the monomer. […]
The resulting sample was deposited on grids immediately, or after incubation for 1 h in a 96-well plate treated with a PEG-like low-binding surface (Corning 3881, NY), at 37 °C. […] Micrographs were recorded with a 1024 × 1024 px Gatan CCD camera, and images were analyzed using FIJI.[100],[101]

[2] = Storage stability at −80 °C (ThT half-time against storage time); format: physicochemical
Excerpt: To more quantitatively assess this stability, the mean fibrillization half-time τhalf of each ThT experiment was plotted against the storage time of the corresponding aliquot.
Each point corresponds to the average fibrillization half-time of a single ThT experiment; the error bars, which in some cases are too small to show, represent a single standard deviation. The fitted curve is an exponential decay of the form τhalf = τhalf^′e^–kmodt, where τhalf is the self-assembly half-time, τhalf^′ is the half-time prior to the effects of storage, kmod is the proportional rate of change of τhalf during storage, and t is the storage time. See text for values of the fitted parameters and Table S2 for the correspondence between the color scheme and sample ID.

[3] = LC–MS check for chemical modification at high pH; format: physicochemical; conditions: 50 mM NaOH
[4] = Removal of HMW material by ultracentrifugation, AF4-MALS and ThT; format: physicochemical; conditions: for integrated HMW UV signal after cross-flow, equivalent mass of Aβ(1-42): 200 µl injected
Experimental: 4 S3 Removal of HMW material from 50 mM NaOH Aβ
5 preparations by ultracentrifugation
8 that attempts to remove any putative seed or oligomers had no impact on the self-assembly 9 kinetics. To complement this, and further explore the nature of the HMW contaminant that 10 eluted after cross-ﬂow in AF4 runs, we removed the HMW material by ultracentrifugation 11 and examined the eﬀect on the self-assembly kinetics. Firstly, an Aβ(1-42) sample was re-12 solubilized to a concentration of 1 mg/ml peptide by sonication for 5 min in 50 mM NaOH.
14 NaOH, centrifuged at 436,000g for 1 h, and examined by AF4-MALS and ThT assays. The 15 dilution was carried out to obtain a suﬃciently large volume for ultracentrifugation. As a 16 control, another aliquot from the same re-solubilized sample was diluted in the same manner, 17 and incubated in a centrifuge tube for the same period of time without ultracentrifugation.
18 Both samples were kept at 21 °C during ultracentrifugation/incubation. For the AF4-MALS 19 experiments, a larger-than-usual injection volume of 200 µl was used to ensure the same mass […]
21 the elugram. For the ThT assays, the buﬀer was pre-adjusted to account for the increased […]
24 the integral of the UV signal after cross-ﬂow; in the control, the integrated HMW signal was […]
26 so the true mass is unknown), whereas in the centrifuged sample the integral was equivalent […]
Similarly, ultracentrifugation caused an approximately 4× reduction
28 in the integral of the LS 90o signal. Although the composition and degree of homogeneity of […]
30 that the majority of this material was removed. Despite removal of this material, the treated […]
One possibility is that the HMW fraction
However, the fact that the full expected 20 µg of
Instead, it may consist of small quantities of dust
36 or pre-existing contaminants in the vials, which were resistant to 50 mM NaOH but had no 37 observable seeding potential. […]
the self-assembly kinetics. Panels show (a) the UV280 signal, (b) the LS 90o signal, (c) the approximate Mw distribution, derived from MALS analysis of the ROI from 3.3-12.0 min using a linear Zimm ﬁtting approach, and (d) the corresponding ThT self-assembly kinetics […]
Color scheme: red, 1 mg/ml sample before dilution (not included in ThT assay); green, 10× diluted 0.1 mg/ml sample, incubated for 1 h before use in experiments; blue, 10× diluted 0.1 mg/ml sample, centrifuged at 436,000g for 1 h and then used in experiments.
(1 picture or pasted object on this page, not shown here)

[5] = cited from earlier work
Excerpt: The concentration dependence is significant as it reflects the ... || The nature and reaction order of the dominant processes responsible for generating fibrils can be inferred from the scaling exponent γ, which relates the polymerization half-time to the initial monomer concentration, τhalf ∝ m0^γ. If secondary processes are negligible so that primary nucleation dominates, then γ = −nc/2, where nc is the effective order of primary nucleation.[91],[92] If most new fibrils are formed by fragmentation of existing fibrils, then γ = −1/2.[88],[89]

[6] = fluorescence-based assays, cited from earlier work
Experimental: Aβ samples that are stored in a lyophilized form are often re-solubilized by treatment with a dilute base such as 1–10 mM NaOH or 0.02–1% NH4OH.[41],[46],[48],[53],[56],[57] These treatments would be expected to give a pH of 10.6–12.0, in the absence of any partial neutralization of the solvent. […] In addition, many st ...

[7] = 436,000g for 1 h against control

With “Aβ(1-42): Ultrapure recombinant Aβ(1-42) purchased from rPeptide, lyophilized from HFIP; disordered amyloid-forming peptide” the “fibrillar species by NS-EM immediately after dilution” value ([1]; 50 mM NaOH sample diluted into pre-adjusted fibrillization buffer pH 8) was “did not reveal any fibrillar species”, the “fibrillar species by NS-EM after incubation” value ([1]; ∼1 h under fibrillization conditions, 37 °C, early growth phase) was “fibrils were observed” and the “period of stability at −80 °C” value ([2]; 5 min sonication in 50 mM NaOH, frozen in liquid N2) was “over 39 days”. The “rate constant kmod of decay of the self-assembly half-time during storage” value ([2]; 5 min sonication in 50 mM NaOH, stored at −80 °C for 1 to 39 days, exponential fit, not significantly different from 0 (P = 0.3011)) was 6.53 × 10^–4 day^–1, the “time constant τmod” value ([2]; storage at −80 °C, from exponential fit) was 1530 days and the “difference between mass spectra of samples sonicated for 5 and 30 min” value [3] was “no obvious difference”. For the same substance, the “integrated HMW UV signal after cross-flow, equivalent mass of Aβ(1-42)” value ([4]; 0.1 mg/ml in 5 mM NaOH, centrifuged at 436,000g for 1 h, 21 °C) was 0.365 µg, the “reduction in the integral of the LS 90° signal by ultracentrifugation” value [4, 7] was “approximately 4 ×” and the “reduction in the integral of the UV signal after cross-flow by ultracentrifugation” value [4, 7] was “approximately 3 ×”. The “integrated HMW UV signal after cross-flow, equivalent mass of Aβ(1-42)” value ([4]; control: 10× diluted to 0.1 mg/ml in 5 mM NaOH, incubated 1 h at 21 °C without ultracentrifugation) was 1.004 µg, the “scaling exponent γ” value ([5]; high-quality in-house recombinant preparations, same experimental conditions) was “≈ −1.3” and the “fibrillization half-time τhalf” value ([5]; in-house recombinant preparations, ref Silvers et al. 75) was “≈ 2000 s”. The “pH threshold for complete elimination of self-assembly” value [6] was 11.0–12.0 pH and the “approximate timescale of limited aggregation” value ([6]; pH 11.0) was “several hundred seconds”.
